Common to all, as to conditions: protein: recombinant; tags: His (pET-32a vector)
For data set [1], the target named is T1, hnRNPA1-His (hnRNPA1A) (UniProt P09651-2 1-320). As to the kind of experiment: pull-down; purified protein; BLI: PBS, 0.002% Tween-20, 0.02% BSA, temperature not stated; pull-down: lysate in 150 mM KCl, 0.5 mM DTT, 0.5% NP-40, 25 mM Tris-HCl pH 7.5, 4 C overnight.
In data set [2] the target is T1, hnRNPA1-His (hnRNPA1A). The experiment in a line: BLI; RNA on streptavidin probe; lower KD than oligo2 but less protein bound; value only in figure; BLI: PBS, 0.002% Tween-20, 0.02% BSA, temperature not stated; pull-down: lysate in 150 mM KCl, 0.5 mM DTT, 0.5% NP-40, 25 mM Tris-HCl pH 7.5, 4 C overnight.
Data set [3] addresses T1, hnRNPA1-His (hnRNPA1A). The experiment in a line: BLI; protein on Ni-NTA probe; KD only in figure; BLI: PBS, 0.002% Tween-20, 0.02% BSA, temperature not stated; pull-down: lysate in 150 mM KCl, 0.5 mM DTT, 0.5% NP-40, 25 mM Tris-HCl pH 7.5, 4 C overnight. In general terms: In BLI a coated tip is dipped into the sample, and binding shifts an interference pattern.
A further data set concerns the target S91A/S95A-His (UniProt P09651-2 1-320, S91A;S95A). The experiment in a line: BLI; protein on Ni-NTA probe; affinity and amount higher than WT; KD only in figure; BLI: PBS, 0.002% Tween-20, 0.02% BSA, temperature not stated; pull-down: lysate in 150 mM KCl, 0.5 mM DTT, 0.5% NP-40, 25 mM Tris-HCl pH 7.5, 4 C overnight.
For a further data set, the target named is S91D/S95D-His (UniProt P09651-2 1-320, S91D;S95D). As to the kind of experiment: BLI; similar or stronger affinity than WT but reduced binding amount; KD only in figure; BLI: PBS, 0.002% Tween-20, 0.02% BSA, temperature not stated; pull-down: lysate in 150 mM KCl, 0.5 mM DTT, 0.5% NP-40, 25 mM Tris-HCl pH 7.5, 4 C overnight.
Sequence of S91D/S95D-His (P09651 other isoform, or with tags, fused parts or gaps S91D;S95D | S91D S95D S91D S95D): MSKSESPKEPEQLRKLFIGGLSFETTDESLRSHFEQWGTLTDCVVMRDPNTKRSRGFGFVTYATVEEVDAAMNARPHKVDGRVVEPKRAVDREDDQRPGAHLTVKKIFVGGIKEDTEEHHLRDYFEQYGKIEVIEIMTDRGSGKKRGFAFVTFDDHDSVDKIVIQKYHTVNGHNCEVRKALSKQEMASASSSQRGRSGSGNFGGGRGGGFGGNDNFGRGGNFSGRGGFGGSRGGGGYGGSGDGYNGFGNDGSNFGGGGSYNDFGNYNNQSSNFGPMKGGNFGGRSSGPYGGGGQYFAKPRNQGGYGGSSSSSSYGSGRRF

T1 sequence (P09651 other isoform, or with tags, fused parts or gaps): as the sequence (P09651 other isoform, or with tags, fused parts or gaps S91D;S95D | S91D S95D S91D S95D) above, with D91S, D95S counted along it
Sequence of S91A/S95A-His (P09651 other isoform, or with tags, fused parts or gaps S91A;S95A | S91A S95A S91A S95A): as the sequence (P09651 other isoform, or with tags, fused parts or gaps S91D;S95D | S91D S95D S91D S95D) above, with D91A, D95A counted along it

As to AGCAGCCUCCUCUGCCCUGCUUCUCCCUAGGUUGUU (ssRNA) [oligo1], in the data set with hnRNPA1-His (hnRNPA1A) [1], the binding result is reported as “binds”.
As for ACAACUGCCACACCGGUAAGGCCAGGCCGC (ssRNA) [oligo2-U13C+A14C], the binding result with hnRNPA1-His (hnRNPA1A) [2] was “binds”.
With ACAACUGCCACAUAGGUAAGGCCAGGCCGC (ssRNA) [oligo2], the binding result with hnRNPA1-His (hnRNPA1A) [3], with S91A/S95A-His and with S91D/S95D-His was “binds” throughout.
